Legend:
Assay in all cases: cell-based or functional assay
[1] = molecular target: HIV-1 Env of pseudovirus 1012_11_TC21_3257 (HIV-1)
[2] = molecular target: HIV-1 Env of pseudovirus 6240_08_TA5_4622 (HIV-1)
[3] = molecular target: HIV-1 Env of pseudovirus 7030102001E5(Rev-) (HIV-1)
[4] = molecular target: HIV-1 Env of pseudovirus CAAN5342.A2 (HIV-1)
[5] = molecular target: HIV-1 Env of pseudovirus CNE21 (HIV-1)
[6] = molecular target: HIV-1 Env of pseudovirus Ce0682_E4 (HIV-1)
[7] = molecular target: HIV-1 Env of pseudovirus Ce1176_A3 (HIV-1)
[8] = molecular target: HIV-1 Env of pseudovirus Ce2010_F5 (HIV-1)
[9] = molecular target: HIV-1 Env of pseudovirus Ce2060_G9 (HIV-1)
[10] = molecular target: HIV-1 Env of pseudovirus HIV-001428-2.42 (HIV-1)
[11] = molecular target: HIV-1 Env of pseudovirus HIV-16055-2.3 (HIV-1)
[12] = molecular target: HIV-1 Env of pseudovirus MS208.A1 (HIV-1)
[13] = molecular target: HIV-1 Env of pseudovirus RHPA4259.7 (HIV-1)
[14] = molecular target: HIV-1 Env of pseudovirus TRJO4551.58 (HIV-1)
[15] = molecular target: HIV-1 Env of pseudovirus ZM109F.PB4 (HIV-1)
[16] = molecular target: HIV-1 Env of pseudovirus ZM197M.PB7 (HIV-1)
[17] = molecular target: HIV-1 Env of pseudovirus ZM53M.PB12 (HIV-1)
[18] = molecular target: HIV-1 Env of pseudovirus 191955_A11 (HIV-1)
[19] = molecular target: HIV-1 Env of pseudovirus 263-8 (HIV-1)
[20] = molecular target: HIV-1 Env of pseudovirus 9004SS_A3_4 (HIV-1)
[21] = molecular target: HIV-1 Env of pseudovirus 928-28 (HIV-1)
[22] = molecular target: HIV-1 Env of pseudovirus T250-4 (HIV-1)
[23] = molecular target: HIV-1 Env of pseudovirus T257-31 (HIV-1)

For N49P9 (antibody), the IC50 [1] was 0.194 µg/mL, the IC80 [1] was 0.591 µg/mL and the MPI [1] was 100. For the same substance, the IC50 [2] was 0.308 µg/mL, the IC80 [2] was 1.26 µg/mL and the MPI [2] was 100. For the same substance, the IC50 [3] was 0.453 µg/mL, the IC80 [3] was 2.03 µg/mL and the MPI [3] was 100. For the same substance, the IC50 [4] was 2.09 µg/mL, the IC80 [4] was 7.38 µg/mL and the MPI [4] was 100. For the same substance, the IC50 [5] was greater than 50 µg/mL, the IC80 [5] was greater than 50 µg/mL and the MPI [5] was 36. The IC50 [6] was 0.049 µg/mL, the IC80 [6] was 0.185 µg/mL and the MPI [6] was 100. It also gave an IC50 [7] of 0.258 µg/mL, an IC80 [7] of 0.919 µg/mL and an MPI [7] of 100. For the same substance, the IC50 [8] was 0.089 µg/mL, the IC80 [8] was 0.271 µg/mL and the MPI [8] was 100. The IC50 [9] was 0.419 µg/mL, the IC80 [9] was 2.19 µg/mL and the MPI [9] was 100. For the same substance, the IC50 [10] was 0.022 µg/mL, the IC80 [10] was 0.106 µg/mL and the MPI [10] was 99. For the same substance, the IC50 [11] was 0.077 µg/mL, the IC80 [11] was 0.274 µg/mL and the MPI [11] was 100. It also gave an IC50 [12] of 0.08 µg/mL, an IC80 [12] of 0.294 µg/mL and an MPI [12] of 100. The IC50 [13] was 0.023 µg/mL, the IC80 [13] was 0.078 µg/mL and the MPI [13] was 100. It also gave an IC50 [14] of 0.036 µg/mL, an IC80 [14] of 0.128 µg/mL and an MPI [14] of 100. The IC50 [15] was 0.075 µg/mL, the IC80 [15] was 0.349 µg/mL and the MPI [15] was 99. For the same substance, the IC50 [16] was 0.083 µg/mL, the IC80 [16] was 0.339 µg/mL and the MPI [16] was 100. It also gave an IC50 [17] of 0.362 µg/mL, an IC80 [17] of 1.14 µg/mL and an MPI [17] of 100.

With 10E8 (antibody) the IC50, titer in TZM.bl cells [1] was 0.244 µg/mL, the IC80, titer in TZM.bl cells [1] was 4.21 µg/mL and the IC50, titer in TZM.bl cells [18] was 0.68 µg/mL. The IC80, titer in TZM.bl cells [18] was 3.53 µg/mL, the IC50, titer in TZM.bl cells [19] was 0.196 µg/mL and the IC80, titer in TZM.bl cells [19] was 1.73 µg/mL. The IC50, titer in TZM.bl cells [2] was 0.756 µg/mL, the IC80, titer in TZM.bl cells [2] was 5.59 µg/mL and the IC50, titer in TZM.bl cells [3] was 6.71 µg/mL. It also gave an IC80, titer in TZM.bl cells [3] greater than 10 µg/mL, an IC50, titer in TZM.bl cells [20] of 1.16 µg/mL and an IC80, titer in TZM.bl cells [20] of 6.76 µg/mL. The IC50, titer in TZM.bl cells [21] was 0.384 µg/mL, the IC80, titer in TZM.bl cells [21] was 1.96 µg/mL and the IC50, titer in TZM.bl cells [4] was 1.28 µg/mL. It also gave an IC80, titer in TZM.bl cells [4] of 9.28 µg/mL, an IC50, titer in TZM.bl cells [5] of 1.9 µg/mL and an IC80, titer in TZM.bl cells [5] greater than 10 µg/mL. The IC50, titer in TZM.bl cells [6] was 1.22 µg/mL, the IC80, titer in TZM.bl cells [6] was 7.71 µg/mL and the IC50, titer in TZM.bl cells [7] was 0.867 µg/mL. It also gave an IC80, titer in TZM.bl cells [7] of 3.92 µg/mL, an IC50, titer in TZM.bl cells [8] of 1.84 µg/mL and an IC80, titer in TZM.bl cells [8] of 8.61 µg/mL. It also gave an IC50, titer in TZM.bl cells [9] of 3.52 µg/mL, an IC80, titer in TZM.bl cells [9] greater than 10 µg/mL and an IC50, titer in TZM.bl cells [10] of 0.809 µg/mL. It also gave an IC80, titer in TZM.bl cells [10] of 7.3 µg/mL, an IC50, titer in TZM.bl cells [11] of 0.722 µg/mL and an IC80, titer in TZM.bl cells [11] of 6.5 µg/mL. The IC50, titer in TZM.bl cells [12] was 0.609 µg/mL, the IC80, titer in TZM.bl cells [12] was 3.72 µg/mL and the IC50, titer in TZM.bl cells [13] was 0.728 µg/mL. The IC80, titer in TZM.bl cells [13] was 5.28 µg/mL, the IC50, titer in TZM.bl cells [22] was 1.35 µg/mL and the IC80, titer in TZM.bl cells [22] was 8.13 µg/mL. It also gave an IC50, titer in TZM.bl cells [23] of 0.88 µg/mL, an IC80, titer in TZM.bl cells [23] of 5.78 µg/mL and an IC50, titer in TZM.bl cells [14] of 0.475 µg/mL. It also gave an IC80, titer in TZM.bl cells [14] of 4.78 µg/mL, an IC50, titer in TZM.bl cells [15] of 0.295 µg/mL and an IC80, titer in TZM.bl cells [15] of 1.89 µg/mL. It also gave an IC50, titer in TZM.bl cells [16] of 0.148 µg/mL, an IC80, titer in TZM.bl cells [16] of 0.802 µg/mL and an IC50, titer in TZM.bl cells [17] of 3.98 µg/mL. For the same substance, the IC80, titer in TZM.bl cells [17] was greater than 10 µg/mL.

Substance PG9 (antibody) has an IC50, titer in TZM.bl cells [1] of 0.172 µg/mL, an IC80, titer in TZM.bl cells [1] of 0.605 µg/mL and an IC50, titer in TZM.bl cells [18] of 0.053 µg/mL. For the same substance, the IC80, titer in TZM.bl cells [18] was 0.154 µg/mL, the IC50, titer in TZM.bl cells [19] was 0.293 µg/mL and the IC80, titer in TZM.bl cells [19] was 1.05 µg/mL. It also gave an IC50, titer in TZM.bl cells [2] of 1.75 µg/mL, an IC80, titer in TZM.bl cells [2] of 6.33 µg/mL and an IC50, titer in TZM.bl cells [3] greater than 50 µg/mL. The IC80, titer in TZM.bl cells [3] was greater than 50 µg/mL, the IC50, titer in TZM.bl cells [20] was 0.088 µg/mL and the IC80, titer in TZM.bl cells [20] was 0.251 µg/mL. The IC50, titer in TZM.bl cells [21] was 0.101 µg/mL, the IC80, titer in TZM.bl cells [21] was 0.45 µg/mL and the IC50, titer in TZM.bl cells [4] was 4.6 µg/mL. It also gave an IC80, titer in TZM.bl cells [4] of 27 µg/mL, an IC50, titer in TZM.bl cells [5] of 0.038 µg/mL and an IC80, titer in TZM.bl cells [5] of 0.094 µg/mL. It also gave an IC50, titer in TZM.bl cells [6] of 0.196 µg/mL, an IC80, titer in TZM.bl cells [6] of 0.698 µg/mL and an IC50, titer in TZM.bl cells [7] of 0.014 µg/mL. It also gave an IC80, titer in TZM.bl cells [7] of 0.044 µg/mL, an IC50, titer in TZM.bl cells [8] greater than 50 µg/mL and an IC80, titer in TZM.bl cells [8] greater than 50 µg/mL. The IC50, titer in TZM.bl cells [9] was 0.045 µg/mL, the IC80, titer in TZM.bl cells [9] was 0.172 µg/mL and the IC50, titer in TZM.bl cells [10] was 0.101 µg/mL. It also gave an IC80, titer in TZM.bl cells [10] of 0.25 µg/mL, an IC50, titer in TZM.bl cells [11] of 0.021 µg/mL and an IC80, titer in TZM.bl cells [11] of 0.06 µg/mL. It also gave an IC50, titer in TZM.bl cells [12] of 0.005 µg/mL, an IC80, titer in TZM.bl cells [12] of 0.014 µg/mL and an IC50, titer in TZM.bl cells [13] of 22.6 µg/mL. It also gave an IC80, titer in TZM.bl cells [13] greater than 50 µg/mL, an IC50, titer in TZM.bl cells [22] of 0.005 µg/mL and an IC80, titer in TZM.bl cells [22] of 0.014 µg/mL. It also gave an IC50, titer in TZM.bl cells [23] of 0.037 µg/mL, an IC80, titer in TZM.bl cells [23] of 0.124 µg/mL and an IC50, titer in TZM.bl cells [14] of 0.503 µg/mL. The IC80, titer in TZM.bl cells [14] was 4.06 µg/mL, the IC50, titer in TZM.bl cells [15] was 0.256 µg/mL and the IC80, titer in TZM.bl cells [15] was 6.69 µg/mL. It also gave an IC50, titer in TZM.bl cells [16] of 0.899 µg/mL, an IC80, titer in TZM.bl cells [16] of 4.52 µg/mL and an IC50, titer in TZM.bl cells [17] of 0.069 µg/mL. The IC80, titer in TZM.bl cells [17] was 0.221 µg/mL.

Source: patent publication US20230002480A1
